# Literature values as cited in patent US7931890B2, “Targeted combination immunotherapy of cancer and infectious diseases” (Immunomedics, Inc., priority 1996, dated 2011).
# Columns and labels:
# streptavidin = streptavidin (Streptomyces avidinii, UniProt P22629); settings: streptavidin-biotin system; Rosebrough 1993; cited from earlier work
# CEA = molecular target: T1, CEA (Homo sapiens, UniProt P06731); settings: Hansen et al. 1993; cited from earlier work
# T1 sequence (P06731 35-676): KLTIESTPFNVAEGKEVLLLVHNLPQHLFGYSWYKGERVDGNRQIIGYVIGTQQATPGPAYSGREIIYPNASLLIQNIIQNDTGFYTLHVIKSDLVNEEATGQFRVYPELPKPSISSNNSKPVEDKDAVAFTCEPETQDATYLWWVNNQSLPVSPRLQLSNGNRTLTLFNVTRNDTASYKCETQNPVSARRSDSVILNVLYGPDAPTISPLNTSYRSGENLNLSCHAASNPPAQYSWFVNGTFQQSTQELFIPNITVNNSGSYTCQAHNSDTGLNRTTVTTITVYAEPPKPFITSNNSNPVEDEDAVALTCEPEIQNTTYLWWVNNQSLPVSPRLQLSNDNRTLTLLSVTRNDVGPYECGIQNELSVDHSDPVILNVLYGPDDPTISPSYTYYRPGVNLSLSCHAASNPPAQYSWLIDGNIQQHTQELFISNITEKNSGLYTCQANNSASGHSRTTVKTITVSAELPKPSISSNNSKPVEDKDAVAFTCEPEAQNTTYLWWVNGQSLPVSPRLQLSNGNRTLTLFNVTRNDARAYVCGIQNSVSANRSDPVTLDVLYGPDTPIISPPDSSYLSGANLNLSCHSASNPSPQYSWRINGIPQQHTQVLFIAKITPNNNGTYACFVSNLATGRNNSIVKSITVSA
# [1] = Rosebrough 1993; cited from earlier work
# Sequence of streptavidin (P22629 25-183): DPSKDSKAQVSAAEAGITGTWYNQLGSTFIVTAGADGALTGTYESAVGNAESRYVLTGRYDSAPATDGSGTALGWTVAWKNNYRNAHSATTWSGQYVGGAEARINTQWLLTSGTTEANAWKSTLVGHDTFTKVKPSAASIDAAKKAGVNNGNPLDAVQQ
compound,measurement,setting,value
O=C(O)CCCC[C@@H]1SC[C@@H]2NC(=O)N[C@@H]21 [biotin],Ka,streptavidin,10^15 M^−1
MN-14: second generation CEA-antibody,affinity for CEA relative to first generation NP-4,CEA,ten times more affinity
avidin: biotin-binding protein found in egg whites,pI,[1],> 10
